Measurements taken from patent publication US20240294623A1.

Target: antigen of FIG. 44 (not named)
Assay: SPR (Biacore), Fab, FIG. 44

fold longer bound than the reference antibody: > 50 fold | t1/2: > 130 min
B1: Ab46 Fab (Fab, V domains shown)
VH: EVQLLESGGGLVQPGGSLRLSCAASGFTFADYAMTWVRQAPGKGLEWVSAISGSGAATYFADSVKGRFTISRDNSKNTLYLQMNSLRAEDTAVYYCARVSSGHWDYDYWGQGTLVTVSS
VL: DIQLTQSPSSLSASVGDRVTITCRASQSISSYLNWYQQKPGKAPKLLIYAASGLESGVPSRFSGSGSGTDFTLTISSLQPEDFATYYCQQTYGVPLTFGGGTKVEIK
